From PMC8386582

Biological target: aCD19A (anti-CD19-A192) Nanoworm
Experiment: SEC-MALS

B1: aCD19A (anti-CD19-A192) Nanoworm (scFv, V domains shown)
VH: QVQLQQSGAELVRPGSSVKISCKASGYAFSSYWMNWVKQRPGQGLEWIGQIWPGDGDTNYNGKFKGKATLTADESSSTAYMQLSSLASEDSAVYFCARRETTTVGRYYYAMDYWGQGTTVTVSS
VL: DIQLTQSPASLAVSLGQRATISCKASQSVDYDGDSYLNWYQQIPGQPPKLLIYDASNLVSGIPPRFSGSGSGTDFTLNIHPVEKVDAATYHCQQSTEDPWTFGGGTKLEIK
For B1, which stoichiometry N is on record?
Its stoichiometry N is 186.
